Measurements as given in patent US12679878B2, “CRF2 receptor agonists and their use in therapy” (SANOFI, priority 2020, dated 2026).
Starred links: 1 amine or outer side, 2 acyl side, 3 side chain; linkers in the order of their positions; H or OH if unused. Non-standard residues stand in square brackets, D forms with d. Groups on a side chain read outwards from the residue. No end group written: not given here. *: point of attachment. C18 diacid = O=C(O)CCCCCCCCCCCCCCCCC(=O)*; γGlu = O=C(O)[C@H](CCC(=O)[*:2])N[*:1]; AEEA = NCCOCCOCC(=O)O; Aib = CC(C)(N)C(=O)O

biological target: human corticotropin-releasing factor 2α (CRF2 α receptor) (human), Q13324; experiment: cell-based or functional assay
Sequence (Q13324 20-411): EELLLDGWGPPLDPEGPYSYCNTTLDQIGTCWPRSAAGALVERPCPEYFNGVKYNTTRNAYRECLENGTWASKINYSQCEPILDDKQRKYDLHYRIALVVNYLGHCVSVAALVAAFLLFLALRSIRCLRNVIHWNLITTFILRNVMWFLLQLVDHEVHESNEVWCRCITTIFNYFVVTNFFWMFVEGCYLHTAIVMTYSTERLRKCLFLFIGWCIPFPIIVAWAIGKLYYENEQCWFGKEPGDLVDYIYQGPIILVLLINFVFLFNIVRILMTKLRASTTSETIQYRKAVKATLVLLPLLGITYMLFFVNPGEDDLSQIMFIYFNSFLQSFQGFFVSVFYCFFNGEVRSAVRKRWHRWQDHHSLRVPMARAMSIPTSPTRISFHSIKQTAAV

Row | Binder | EC50 [nM], 0% HSA
1 | IVLSLDVPTKLK([AEEA-AEEA-γGlu-C18 diacid])QKLLKQERQRKERQQAETNKRILERV-NH2 (N-terminus assumed; SMILES CC[C@H](C)[C@H](N)C(=O)N[C@H](C(=O)N[C@@H](CC(C)C)C(=O)N[C@@H](CO)C(=O)N[C@@H](CC(C)C)C(=O)N[C@@H](CC(=O)O)C(=O)N[C@H](C(=O)N1CCC[C@H]1C(=O)N[C@H](C(=O)N[C@@H](CCCCN)C(=O)N[C@@H](CC(C)C)C(=O)N[C@@H](CCCCNC(=O)COCCOCCNC(=O)COCCOCCNC(=O)CC[C@H](NC(=O)CCCCCCCCCCCCCCCCC(=O)O)C(=O)O)C(=O)N[C@@H](CCC(N)=O)C(=O)N[C@@H](CCCCN)C(=O)N[C@@H](CC(C)C)C(=O)N[C@@H](CC(C)C)C(=O)N[C@@H](CCCCN)C(=O)N[C@@H](CCC(N)=O)C(=O)N[C@@H](CCC(=O)O)C(=O)N[C@@H](CCCNC(=N)N)C(=O)N[C@@H](CCC(N)=O)C(=O)N[C@@H](CCCNC(=N)N)C(=O)N[C@@H](CCCCN)C(=O)N[C@@H](CCC(=O)O)C(=O)N[C@@H](CCCNC(=N)N)C(=O)N[C@@H](CCC(N)=O)C(=O)N[C@@H](CCC(N)=O)C(=O)N[C@@H](C)C(=O)N[C@@H](CCC(=O)O)C(=O)N[C@H](C(=O)N[C@@H](CC(N)=O)C(=O)N[C@@H](CCCCN)C(=O)N[C@@H](CCCNC(=N)N)C(=O)N[C@H](C(=O)N[C@@H](CC(C)C)C(=O)N[C@@H](CCC(=O)O)C(=O)N[C@@H](CCCNC(=N)N)C(=O)N[C@H](C(N)=O)C(C)C)[C@@H](C)CC)[C@@H](C)O)[C@@H](C)O)C(C)C)C(C)C) [SEQ ID NO: 37] | 1.6 nM
2 | IVLSLDVPTKLK([AEEA-AEEA-γGlu-C18 diacid])QKLLKQERQR[Aib]ERQQAETNKRILERV-NH2 (N-terminus assumed; SMILES CC[C@H](C)[C@H](N)C(=O)N[C@H](C(=O)N[C@@H](CC(C)C)C(=O)N[C@@H](CO)C(=O)N[C@@H](CC(C)C)C(=O)N[C@@H](CC(=O)O)C(=O)N[C@H](C(=O)N1CCC[C@H]1C(=O)N[C@H](C(=O)N[C@@H](CCCCN)C(=O)N[C@@H](CC(C)C)C(=O)N[C@@H](CCCCNC(=O)COCCOCCNC(=O)COCCOCCNC(=O)CC[C@H](NC(=O)CCCCCCCCCCCCCCCCC(=O)O)C(=O)O)C(=O)N[C@@H](CCC(N)=O)C(=O)N[C@@H](CCCCN)C(=O)N[C@@H](CC(C)C)C(=O)N[C@@H](CC(C)C)C(=O)N[C@@H](CCCCN)C(=O)N[C@@H](CCC(N)=O)C(=O)N[C@@H](CCC(=O)O)C(=O)N[C@@H](CCCNC(=N)N)C(=O)N[C@@H](CCC(N)=O)C(=O)N[C@@H](CCCNC(=N)N)C(=O)NC(C)(C)C(=O)N[C@@H](CCC(=O)O)C(=O)N[C@@H](CCCNC(=N)N)C(=O)N[C@@H](CCC(N)=O)C(=O)N[C@@H](CCC(N)=O)C(=O)N[C@@H](C)C(=O)N[C@@H](CCC(=O)O)C(=O)N[C@H](C(=O)N[C@@H](CC(N)=O)C(=O)N[C@@H](CCCCN)C(=O)N[C@@H](CCCNC(=N)N)C(=O)N[C@H](C(=O)N[C@@H](CC(C)C)C(=O)N[C@@H](CCC(=O)O)C(=O)N[C@@H](CCCNC(=N)N)C(=O)N[C@H](C(N)=O)C(C)C)[C@@H](C)CC)[C@@H](C)O)[C@@H](C)O)C(C)C)C(C)C) [SEQ ID NO: 38] | 20.9 nM
3 | IVLSLD[dV]PTKLK([AEEA-AEEA-γGlu-C18 diacid])QKLLKQERQRK[Aib]REQAEKNKRILERV-NH2 (N-terminus assumed; SMILES CC[C@H](C)[C@H](N)C(=O)N[C@H](C(=O)N[C@@H](CC(C)C)C(=O)N[C@@H](CO)C(=O)N[C@@H](CC(C)C)C(=O)N[C@@H](CC(=O)O)C(=O)N[C@@H](C(=O)N1CCC[C@H]1C(=O)N[C@H](C(=O)N[C@@H](CCCCN)C(=O)N[C@@H](CC(C)C)C(=O)N[C@@H](CCCCNC(=O)COCCOCCNC(=O)COCCOCCNC(=O)CC[C@H](NC(=O)CCCCCCCCCCCCCCCCC(=O)O)C(=O)O)C(=O)N[C@@H](CCC(N)=O)C(=O)N[C@@H](CCCCN)C(=O)N[C@@H](CC(C)C)C(=O)N[C@@H](CC(C)C)C(=O)N[C@@H](CCCCN)C(=O)N[C@@H](CCC(N)=O)C(=O)N[C@@H](CCC(=O)O)C(=O)N[C@@H](CCCNC(=N)N)C(=O)N[C@@H](CCC(N)=O)C(=O)N[C@@H](CCCNC(=N)N)C(=O)N[C@@H](CCCCN)C(=O)NC(C)(C)C(=O)N[C@@H](CCCNC(=N)N)C(=O)N[C@@H](CCC(=O)O)C(=O)N[C@@H](CCC(N)=O)C(=O)N[C@@H](C)C(=O)N[C@@H](CCC(=O)O)C(=O)N[C@@H](CCCCN)C(=O)N[C@@H](CC(N)=O)C(=O)N[C@@H](CCCCN)C(=O)N[C@@H](CCCNC(=N)N)C(=O)N[C@H](C(=O)N[C@@H](CC(C)C)C(=O)N[C@@H](CCC(=O)O)C(=O)N[C@@H](CCCNC(=N)N)C(=O)N[C@H](C(N)=O)C(C)C)[C@@H](C)CC)[C@@H](C)O)C(C)C)C(C)C) [SEQ ID NO: 36] | 1.45 nM

Second part, the binder after the results:

Row | EC50 [nM], 0% HSA | Binder
4 | 0.65 nM | IVLSLDVPIKLK([AEEA-AEEA-γGlu-C18 diacid])QILLEQERQRKERQQAETNAQILAQV-NH2 (N-terminus assumed; SMILES CC[C@H](C)[C@H](N)C(=O)N[C@H](C(=O)N[C@@H](CC(C)C)C(=O)N[C@@H](CO)C(=O)N[C@@H](CC(C)C)C(=O)N[C@@H](CC(=O)O)C(=O)N[C@H](C(=O)N1CCC[C@H]1C(=O)N[C@H](C(=O)N[C@@H](CCCCN)C(=O)N[C@@H](CC(C)C)C(=O)N[C@@H](CCCCNC(=O)COCCOCCNC(=O)COCCOCCNC(=O)CC[C@H](NC(=O)CCCCCCCCCCCCCCCCC(=O)O)C(=O)O)C(=O)N[C@@H](CCC(N)=O)C(=O)N[C@H](C(=O)N[C@@H](CC(C)C)C(=O)N[C@@H](CC(C)C)C(=O)N[C@@H](CCC(=O)O)C(=O)N[C@@H](CCC(N)=O)C(=O)N[C@@H](CCC(=O)O)C(=O)N[C@@H](CCCNC(=N)N)C(=O)N[C@@H](CCC(N)=O)C(=O)N[C@@H](CCCNC(=N)N)C(=O)N[C@@H](CCCCN)C(=O)N[C@@H](CCC(=O)O)C(=O)N[C@@H](CCCNC(=N)N)C(=O)N[C@@H](CCC(N)=O)C(=O)N[C@@H](CCC(N)=O)C(=O)N[C@@H](C)C(=O)N[C@@H](CCC(=O)O)C(=O)N[C@H](C(=O)N[C@@H](CC(N)=O)C(=O)N[C@@H](C)C(=O)N[C@@H](CCC(N)=O)C(=O)N[C@H](C(=O)N[C@@H](CC(C)C)C(=O)N[C@@H](C)C(=O)N[C@@H](CCC(N)=O)C(=O)N[C@H](C(N)=O)C(C)C)[C@@H](C)CC)[C@@H](C)O)[C@@H](C)CC)[C@@H](C)CC)C(C)C)C(C)C) [SEQ ID NO: 39]
5 | 15.4 nM | IVLSLDVPIKLK([AEEA-AEEA-γGlu-C18 diacid])QILLEQERQRKERQQAETNVQILAQV-NH2 (N-terminus assumed; SMILES CC[C@H](C)[C@H](N)C(=O)N[C@H](C(=O)N[C@@H](CC(C)C)C(=O)N[C@@H](CO)C(=O)N[C@@H](CC(C)C)C(=O)N[C@@H](CC(=O)O)C(=O)N[C@H](C(=O)N1CCC[C@H]1C(=O)N[C@H](C(=O)N[C@@H](CCCCN)C(=O)N[C@@H](CC(C)C)C(=O)N[C@@H](CCCCNC(=O)COCCOCCNC(=O)COCCOCCNC(=O)CC[C@H](NC(=O)CCCCCCCCCCCCCCCCC(=O)O)C(=O)O)C(=O)N[C@@H](CCC(N)=O)C(=O)N[C@H](C(=O)N[C@@H](CC(C)C)C(=O)N[C@@H](CC(C)C)C(=O)N[C@@H](CCC(=O)O)C(=O)N[C@@H](CCC(N)=O)C(=O)N[C@@H](CCC(=O)O)C(=O)N[C@@H](CCCNC(=N)N)C(=O)N[C@@H](CCC(N)=O)C(=O)N[C@@H](CCCNC(=N)N)C(=O)N[C@@H](CCCCN)C(=O)N[C@@H](CCC(=O)O)C(=O)N[C@@H](CCCNC(=N)N)C(=O)N[C@@H](CCC(N)=O)C(=O)N[C@@H](CCC(N)=O)C(=O)N[C@@H](C)C(=O)N[C@@H](CCC(=O)O)C(=O)N[C@H](C(=O)N[C@@H](CC(N)=O)C(=O)N[C@H](C(=O)N[C@@H](CCC(N)=O)C(=O)N[C@H](C(=O)N[C@@H](CC(C)C)C(=O)N[C@@H](C)C(=O)N[C@@H](CCC(N)=O)C(=O)N[C@H](C(N)=O)C(C)C)[C@@H](C)CC)C(C)C)[C@@H](C)O)[C@@H](C)CC)[C@@H](C)CC)C(C)C)C(C)C) [SEQ ID NO: 40]
6 | 15.6 nM | IVLSLDVPIKLK([AEEA-AEEA-γGlu-C18 diacid])QILLEQERQRKERQQAEKNVRILERV-NH2 (N-terminus assumed; SMILES CC[C@H](C)[C@H](N)C(=O)N[C@H](C(=O)N[C@@H](CC(C)C)C(=O)N[C@@H](CO)C(=O)N[C@@H](CC(C)C)C(=O)N[C@@H](CC(=O)O)C(=O)N[C@H](C(=O)N1CCC[C@H]1C(=O)N[C@H](C(=O)N[C@@H](CCCCN)C(=O)N[C@@H](CC(C)C)C(=O)N[C@@H](CCCCNC(=O)COCCOCCNC(=O)COCCOCCNC(=O)CC[C@H](NC(=O)CCCCCCCCCCCCCCCCC(=O)O)C(=O)O)C(=O)N[C@@H](CCC(N)=O)C(=O)N[C@H](C(=O)N[C@@H](CC(C)C)C(=O)N[C@@H](CC(C)C)C(=O)N[C@@H](CCC(=O)O)C(=O)N[C@@H](CCC(N)=O)C(=O)N[C@@H](CCC(=O)O)C(=O)N[C@@H](CCCNC(=N)N)C(=O)N[C@@H](CCC(N)=O)C(=O)N[C@@H](CCCNC(=N)N)C(=O)N[C@@H](CCCCN)C(=O)N[C@@H](CCC(=O)O)C(=O)N[C@@H](CCCNC(=N)N)C(=O)N[C@@H](CCC(N)=O)C(=O)N[C@@H](CCC(N)=O)C(=O)N[C@@H](C)C(=O)N[C@@H](CCC(=O)O)C(=O)N[C@@H](CCCCN)C(=O)N[C@@H](CC(N)=O)C(=O)N[C@H](C(=O)N[C@@H](CCCNC(=N)N)C(=O)N[C@H](C(=O)N[C@@H](CC(C)C)C(=O)N[C@@H](CCC(=O)O)C(=O)N[C@@H](CCCNC(=N)N)C(=O)N[C@H](C(N)=O)C(C)C)[C@@H](C)CC)C(C)C)[C@@H](C)CC)[C@@H](C)CC)C(C)C)C(C)C) [SEQ ID NO: 41]
